Measurements reported in the supplement of paper PMC7877785.
± gives the uncertainty stated by the source.

Experiment: self-splicing fitness, log relative to wild type (ln ratio); higher = more splicing; Tetrahymena group I intron in knt gene, E. coli kanamycin selection, DiMSum; sequences stand for … in CUCUCU…GGAGGGAAAAGUUAUCAGGCAUGCACCUGGUAGCUAGUCUUUAAACCAAUAGAUUGCAUCGGUUUAAAAGGCAAGACCGUCAAAUUGCGGGAAAGGGGUCAACAGCCGUUCAGUACCAAGUCUCAGGGGAAACUUUGAGAUGGCCUUGCAAAGGGUAUGGUAAUAAGCUGACGGACAUGGUCCUAACCACGCAGCCAAGUCCUAAGUCAACAGAUCUUCUGUUGAUAUGGAUGCAGUUCACAGACUAAAUGUCGGUCGGGGAAGAUGUAUUCUUCUCAUAAGAUAUAGUCGGACCUCUCCUUAAUGGGAGCUAGCGGAUGAAGUGAUGCAACACUGGAGCCGCUGGGAACUAAUUUGUAUGCGAAAGUAUAUUGAUUAGUUUUGGAGUACUCGUGGUCG
Summary of the method: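 Colonies from six replicate transformations of E. coli BL21(DE3) were pooled and amplicon-sequenced on an Illumina HiSeq 2500. The library placed an intron with all eight P1ex-region nucleotides randomised inside the knt kanamycin-resistance gene on pET-22b(+), and cells grew overnight at 37°C or 30°C on LB agar with or without 25 μg/mL kanamycin (plus 100 μg/mL carbenicillin, 50 μM IPTG, 0.2% rhamnose). Fitness is the DiMSum error-weighted combination of wild-type-normalised replicate fold changes, kanamycin versus none.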

Row | Sequence | self-splicing fitness (ln) (30 °C) | self-splicing fitness (ln) (37 °C)
1 | GUGUAGCAAUAUUACGAUAA | -2.6 ± 0.19 | -0.508 ± 0.12
2 | CCUAAGCAAUAUUACGAACG | -1.68 ± 0.13 | -0.478 ± 0.14
3 | CCCUAGCAAUAUUACGAUCG | -3.91 ± 0.35 | -1.47 ± 0.18
4 | CACUAGCAAUAUUACGAAAU | – | -1.38 ± 0.4
5 | ACUUAGCAAUAUUACGGGCG | -0.769 ± 0.078 | -0.483 ± 0.085
6 | GACUAGCAAUAUUACGACGU | -0.558 ± 0.085 | 0.328 ± 0.099
7 | ACUAAGCAAUAUUACGAUGC | -1.53 ± 0.091 | -0.792 ± 0.11
8 | GGAUAGCAAUAUUACGCAUU | -3.51 ± 0.32 | -1.65 ± 0.22
9 | GCACAGCAAUAUUACGCCAU | -3.37 ± 0.12 | -2.42 ± 0.12
10 | UGACAGCAAUAUUACGUCAU | -3.99 ± 0.27 | -2.48 ± 0.18
11 | AACAAGCAAUAUUACGUUCC | -3.85 ± 0.36 | -0.835 ± 0.2
12 | UUUAAGCAAUAUUACGCUCU | -1.26 ± 0.098 | -0.539 ± 0.11
13 | UUAAAGCAAUAUUACGUUGG | -1.12 ± 0.094 | -0.746 ± 0.1
14 | AUUUAGCAAUAUUACGACAC | -0.837 ± 0.12 | -0.373 ± 0.14
15 | AGACAGCAAUAUUACGGCCA | -1.28 ± 0.11 | -0.142 ± 0.11
16 | GUGGAGCAAUAUUACGUAAU | -2.23 ± 0.13 | -0.812 ± 0.13
17 | AGCAAGCAAUAUUACGCGCG | -1.54 ± 0.072 | -0.145 ± 0.09
18 | CACGAGCAAUAUUACGACAG | -1.71 ± 0.078 | -0.496 ± 0.095
19 | CGCCAGCAAUAUUACGGCAC | -2.37 ± 0.1 | -1.04 ± 0.097
20 | UGCCAGCAAUAUUACGAUCC | -3.25 ± 0.29 | -1.11 ± 0.42
21 | CCACAGCAAUAUUACGGAAC | -3.75 ± 0.24 | -2.47 ± 0.23
22 | CGUGAGCAAUAUUACGGUAC | -3.78 ± 0.35 | -1.63 ± 0.31
23 | AAUGAGCAAUAUUACGAGGA | -2.86 ± 0.36 | -2.08 ± 0.36
24 | UUGGAGCAAUAUUACGGAGA | -2.59 ± 0.37 | -1.08 ± 0.23
25 | ACCCAGCAAUAUUACGCUCU | -0.186 ± 0.058 | 0.107 ± 0.067
26 | GAUUAGCAAUAUUACGUAUU | -3 ± 0.12 | -1.65 ± 0.1

Row | Sequence | self-splicing fitness (ln) (30 °C) | self-splicing fitness (ln) (37 °C)
27 | GCUAAGCAAUAUUACGCCGG | -2.65 ± 0.2 | -1.33 ± 0.19
28 | GCGGAGCAAUAUUACGGUGC | -3.56 ± 0.49 | –
29 | GACGAGCAAUAUUACGAAGU | -3.26 ± 0.22 | -2.57 ± 0.26
30 | UGAUAGCAAUAUUACGAACU | -1.03 ± 0.12 | 0.402 ± 0.11
31 | AAAGAGCAAUAUUACGUGGC | -2.86 ± 0.23 | –
32 | AGCUAGCAAUAUUACGCAAA | -1.8 ± 0.18 | -2.24 ± 0.24
33 | CAAGAGCAAUAUUACGUCAG | -3.25 ± 0.16 | -0.429 ± 0.11
34 | UGACAGCAAUAUUACGCGGA | -1.75 ± 0.12 | -1 ± 0.097
35 | CUGCAGCAAUAUUACGUAAC | -3.31 ± 0.26 | -2.38 ± 0.29
36 | CUGGAGCAAUAUUACGGCCU | -2.88 ± 0.38 | -1.85 ± 0.3
37 | UCCUAGCAAUAUUACGUUUC | -2.36 ± 0.4 | -3.04 ± 0.43
38 | CAUCAGCAAUAUUACGCAUA | -1.59 ± 0.089 | -0.647 ± 0.1
39 | CCAUAGCAAUAUUACGGGAU | -3.65 ± 0.23 | -2.86 ± 0.24
40 | UGAAAGCAAUAUUACGAGGU | -4.07 ± 0.31 | -1.72 ± 0.23
41 | UAACAGCAAUAUUACGCAGA | -2.78 ± 0.14 | -1.47 ± 0.087
42 | UGUAAGCAAUAUUACGCUGU | -3.43 ± 0.18 | -2.07 ± 0.18
43 | AAGAAGCAAUAUUACGACGG | -1.52 ± 0.078 | -1.15 ± 0.14
44 | CAUGAGCAAUAUUACGUGCA | -1.37 ± 0.15 | -1.97 ± 0.24
45 | UCGUAGCAAUAUUACGAUAA | -3.65 ± 0.26 | -1.72 ± 0.2
46 | CGAAAGCAAUAUUACGAACG | -1.08 ± 0.13 | -0.291 ± 0.14
47 | GCUGAGCAAUAUUACGUGGG | -2.02 ± 0.16 | -2.36 ± 0.26
48 | AGGUAGCAAUAUUACGCCUC | -3.88 ± 0.05 | -3.34 ± 0.068
49 | GUCAAGCAAUAUUACGACUU | -3.18 ± 0.099 | -1.86 ± 0.1
50 | ACCCAGCAAUAUUACGCCGG | -3.06 ± 0.16 | -2.96 ± 0.26
51 | CCAUAGCAAUAUUACGAAUG | -2.11 ± 0.08 | -1.15 ± 0.095
52 | CGCGAGCAAUAUUACGUCUA | -1.42 ± 0.17 | -0.973 ± 0.26

Row | Sequence | self-splicing fitness (ln) (30 °C) | self-splicing fitness (ln) (37 °C)
53 | UAGUAGCAAUAUUACGCAUA | -1.58 ± 0.11 | -1.69 ± 0.11
54 | CUAGAGCAAUAUUACGACUG | 0.0552 ± 0.11 | -0.585 ± 0.14
55 | CUAAAGCAAUAUUACGAAUA | -2.73 ± 0.23 | -1.94 ± 0.24
56 | CCGAAGCAAUAUUACGAGGG | -3 ± 0.18 | -1.73 ± 0.22
57 | CCCCAGCAAUAUUACGUCUU | -3.9 ± 0.12 | -2.04 ± 0.12
58 | GCUCAGCAAUAUUACGACAA | -1.6 ± 0.15 | -1.42 ± 0.21
59 | AUAUAGCAAUAUUACGUCUU | -0.0336 ± 0.1 | -0.378 ± 0.1
60 | UUAGAGCAAUAUUACGGCGG | -0.922 ± 0.14 | 0.0643 ± 0.2
61 | AGAUAGCAAUAUUACGUUCC | -1.62 ± 0.2 | -1.48 ± 0.23
62 | AUGCAGCAAUAUUACGCCCA | -1.11 ± 0.12 | 0.0949 ± 0.14
63 | GGUAAGCAAUAUUACGUUGA | -1.76 ± 0.21 | -1.03 ± 0.15
64 | CAGCAGCAAUAUUACGAUGC | -4.05 ± 0.28 | -2.89 ± 0.34
65 | UCGAAGCAAUAUUACGUUGC | -3.36 ± 0.26 | –
66 | GUUGAGCAAUAUUACGCCCG | -2.7 ± 0.49 | –
67 | GUAAAGCAAUAUUACGCACA | 0.186 ± 0.082 | 0.579 ± 0.11
68 | ACAAAGCAAUAUUACGAAGA | -3.03 ± 0.42 | -0.86 ± 0.18
69 | CGACAGCAAUAUUACGUCGU | -4.07 ± 0.19 | -2.29 ± 0.11
70 | ACUAAGCAAUAUUACGUGGA | -2.99 ± 0.14 | -1.49 ± 0.11
71 | CGGCAGCAAUAUUACGAGCC | -2.78 ± 0.24 | -1.37 ± 0.21
72 | UCCCAGCAAUAUUACGGUCA | -0.0309 ± 0.062 | 0.226 ± 0.072
73 | AUUCAGCAAUAUUACGUACC | -0.843 ± 0.061 | -0.514 ± 0.089
74 | AGUGAGCAAUAUUACGAUAU | -3.14 ± 0.25 | -2.22 ± 0.28
75 | AUGUAGCAAUAUUACGGUGA | -1.57 ± 0.13 | -1.52 ± 0.16
76 | CACGAGCAAUAUUACGCCAU | -2.82 ± 0.27 | -2.55 ± 0.33
